Residue numbers refer to the chain shown, from its start. In names and notes the source's numbering stands. Ends that are not written are not given here.
Tests used:
[1] = target: T1, soluble CA125 in OVCAR-3 supernatant (human, UniProt Q8WXI7 1-14439, limits assumed, heavily glycosylated with O-linked and N-linked oligosaccharides); assay: Western blot overlay with OVCAR-3 supernatant, OC125 detection
T1 construct: Not purified: used as OVCAR-3 culture supernatant, detected with the anti-CA125 mAb OC125; also called MUC16; OVCAR-3 supernatant containing CA125
Protocol: FIGS. 4A-B. Western blots of mesothelin fragments and alanine mutants. Each protein (500 ng) was run on an SDS-PAGE gel and transferred to a PVDF membrane. Membrane was blotted with OVCAR-3 supernatant containing CA125 followed by OC125 (anti-CA125 mAb).
Western blots—Purified Fc mesothelin fragments (500 ng) were mixed with Laemmli Sample Buffer (Biorad) supplemented with 5% B-Mercaptoethanol. Samples were boiled for 2 min and separated on 4-20% SDS-PAGE gels (Invitrogen). After transfer for 4 h at 30V, the PVDF membrane was blocked overnight at 4° C. in 1% Western Blocking Reagent (Roche) in Tris buffered saline (50 mM Tris-HCl, 150 mM NaCl). The membrane was then incubated with OVCAR-3 supernatant+0.5% blocking solution for 1 h at RT. This was followed by incubation with 1:200 dilution of OC125 mAb for 1 h at RT. Detection was performed with goat anti-mouse IgG-HRP conjugate (Biosource) 1:1000 for 1 h.

[2] = target: T1, soluble CA125 in OVCAR-3 supernatant; assay: sandwich ELISA, captured rFc fusion at various concentrations, OVCAR-3 supernatant, OC125 detection; nonlinear regression/Scatchard
Protocol: (§1) Scatchard plots (top left corner) were made. ELISA plates captured the Fc mesothelin mutant fusion proteins at various concentrations (x axis; see Experimental Procedures). OVCAR-3 supernatant containing soluble CA125 was then added, followed by the OC125 mAb and a goat anti-mouse IgG HRP.
(§2) Sandwich ELISA—Nunc MaxiSorp 96 well flat-bottomed plates were incubated overnight with 5 μg/mL, goat anti-rabbit IgG (Jackson ImmunoResearch Laboratories) in PBS, followed by an overnight block with 5% BSA, 0.01% NaN₃ in PBS. Purified Fc mesothelin fragments were diluted to 1 μg/mL in ELISA buffer (0.01% Tween 20, 10% Pierce SuperBlock) and incubated on plate for 1 h at room temperature (RT). Plates were then incubated with OVCAR-3 supernatant containing CA125 for 1 h at RT. To detect bound CA125 a 1:200 dilution of anti-CA125 OC125 mAb (Zymed) was incubated for an additional hour at RT; subsequently a 1:1500 dilution of goat anti-mouse IgG HRP conjugate (Biosource) was added for 1 h at RT. The plates were washed four times with ELISA buffer between each coating.
(§3) Kinetic studies by ELISA—To precisely characterize the interaction between CA125 and mesothelin and to determine a binding affinity (KD) for each mesothelin fragment, we used a quantitative ELISA-based assay. ELISA plates were coated with a goat anti-rabbit IgG antibody overnight for capturing the Fc mesothelin mutant fusion proteins. OVCAR-3 supernatant containing soluble CA125 was then added, followed by the OC125 mAb. Overall results from the ELISA were consistent with those seen in the Western blot overlay assays except for the E324A mutant of mesothelin (FIG. 5).

[3] = target: T2, CA125 on the cell surface of OVCAR-3 or YOU cells (human, UniProt Q8WXI7 1-14507, heavily glycosylated with O-linked and N-linked oligosaccharides); assay: flow cytometry on OVCAR-3 cells, FULL set to 100%
T2 construct: whole, on cells; also called MUC16; human CA125
Protocol: FIGS. 6A-B. Binding of truncated mutants and alanine mutants to CA125 on the cell surface of OVCAR-3 cells. A. OVCAR-3 ovarian cancer cells were incubated with full-length extracellular domain of mesothelin (FULL), Region I, IAB or IBC. The binding was visualized with a goat anti-rabbit IgG PE-conjugated secondary antibody by flow cytometry (gray line). Light gray shaded plot: secondary antibody only. B. A fluorescence intensity (geometrical mean) was used to quantitatively measure the CA125 binding. In each experiment, the binding of the full-length mature form of mesothelin (FULL) to CA125 was determined as 100% of binding. The secondary antibody only was used as a negative (0%) control.
(§4) Flow cytometry—To determine binding of mesothelin fragments to CA125 on the cell surface, OVCAR-3 or YOU cells were grown until confluent, detached, and then incubated with 1 μg/mL of mesothelin or its fragments in FACS buffer (5% BSA, 0.01% NaN₃) for 1 h on ice. Bound fragments were detected by incubating with a 1:200 dilution of Goat anti-Rabbit IgG-PE (Biosource) secondary antibody in FACS buffer for 0.5 h on ice. Cells were analyzed using FACSCalibur (BD Biosciences). Each binding experiment was repeated three to five times.
Cell binding assays by flow cytometry—To assess binding to CA125 on cancer cells, wild-type mesothelin and its mutants were incubated with cells. […]

[4] = target: T1, soluble CA125 in OVCAR-3 supernatant; assay: sandwich ELISA; average KD told of three proteins
Protocol: as §1, §2
Kinetic studies by ELISA—To precisely characterize the interaction between CA125 and mesothelin and to determine a binding affinity (KD) for each mesothelin fragment, we used a quantitative ELISA-based assay. ELISA plates were coated with a goat anti-rabbit IgG antibody overnight for capturing the Fc mesothelin mutant fusion proteins. […]

[5] = target: T1, soluble CA125 in OVCAR-3 supernatant; assay: sandwich ELISA, captured rFc fusion, OVCAR-3 supernatant, OC125 detection
Protocol: as §2, §3

[6] = target: T2, CA125 on the cell surface of OVCAR-3 or …; assay: flow cytometry on YOU cells, FULL set to 100%
Protocol: FIGS. 7A-B. Binding of truncated mutants and alanine mutants to CA125 on the cell surface of YOU cells. A. YOU mesothelioma cells were incubated with full-length extracellular domain of mesothelin (FULL) or a mutant of mesothelin. The binding was visualized with a goat anti-rabbit IgG PE-conjugated secondary antibody by flow cytometry (gray line). Light gray shaded plot: secondary antibody only. B. A mean fluorescence intensity (geometrical mean) was used to quantitatively measure the CA125 binding on YOU cells. In each experiment, the binding of the full-length mesothelin (FULL) to CA125 was determined as 100% of binding. The secondary antibody only was used as a negative (0%) control.
as §4

[7] = target: soluble CA125 in OVCAR-3 supernatant (human) (UniProt Q8WXI7); assay: sandwich ELISA; average KD told of three proteins
[8] = target: soluble CA125 in OVCAR-3 supernatant (human) (UniProt Q8WXI7); assay: sandwich ELISA, captured rFc fusion at various concentrations, OVCAR-3 supernatant, OC125 detection; nonlinear regression/Scatchard
[9] = target: CA125 on the cell surface of OVCAR-3 or YOU cells (human) (UniProt Q8WXI7); assay: cell-based or functional assay

B1: mesothelin Region IA (296-337) rabbit IgG Fc fusion protein, rFc at the C-terminus (Fc fusion)
chain: EVEKTACPSGKKAREIDESLIFYKKWELEACVDAALLATQMD
notes: not shown: junction between fragment and rFc, and any tags, not described for this construct; rabbit IgG Fc (rFc)
B1: no binding (tested: 500 ng) [1].

B2: mesothelin Region IAB (296-359) rabbit IgG Fc fusion protein (Fc fusion, not shown: a dimerising Fc or GST; small tags and cut ends)
chain: EVEKTACPSGKKAREIDESLIFYKKWELEACVDAALLATQMDRVNAIPFTYEQLDVLKHKLDEL
notes: also called Region IAB wild-type (wt)
With B2 the Kd [2] was 3.35 nM, the “binding activity relative to FULL” value [3] was ~90% and the Kd [4] was ~3 nM.

B3: E324A alanine mutant of mesothelin Region IAB (296-359), rabbit IgG Fc fusion protein (Fc fusion, not shown: a dimerising Fc or GST; small tags and cut ends)
chain: B2 chain with E29A
notes: Alanine mutant within Region IAB
For B3, the Kd [2] was 42.4 nM.

B4: W321A alanine mutant of mesothelin Region IAB (296-359), rabbit IgG Fc fusion protein (Fc fusion, not shown: a dimerising Fc or GST; small tags and cut ends)
chain: B2 chain with W26A
notes: as for B3
In the case of B4, the Kd [2] is reported as 19.5 nM.

B5: Y318A alanine mutant of mesothelin Region IAB (296-359), rabbit IgG Fc fusion protein (Fc fusion, not shown: a dimerising Fc or GST; small tags and cut ends)
chain: B2 chain with Y23A
notes: as for B3
B5: no binding [5].

B6: H354A alanine mutant of mesothelin Region IAB (296-359), rabbit IgG Fc fusion protein (Fc fusion, not shown: a dimerising Fc or GST; small tags and cut ends)
chain: B2 chain with H59A
notes: Alanine mutant within Region IAB; also called H354A mutant of IAB
Work on B6 yielded a Kd [2] of 2.71 nM.

B7: mesothelin Region IBC (328-405) rabbit IgG Fc fusion protein (Fc fusion, not shown: a dimerising Fc or GST; small tags and cut ends)
chain: DAALLATQMDRVNAIPFTYEQLDVLKHKLDELYPQGYPESVIQHLGYLFLKMSPEDIRKWNVTSLETLKALLEVNKGH
B7: no binding (tested: 500 ng) [1].

B8: mesothelin Region IC (360-405) rabbit IgG Fc fusion protein (Fc fusion, not shown: a dimerising Fc or GST; small tags and cut ends)
chain: YPQGYPESVIQHLGYLFLKMSPEDIRKWNVTSLETLKALLEVNKGH
modifications: also: fusion with rabbit IgG Fc, thrombin site with flexible linker, myc epitope (no letters given)
B8: no binding [5].

B9: mesothelin Region I (296-390) rabbit IgG Fc fusion protein (Fc fusion, not shown: a dimerising Fc or GST; small tags and cut ends)
chain: EVEKTACPSGKKAREIDESLIFYKKWELEACVDAALLATQMDRVNAIPFTYEQLDVLKHKLDELYPQGYPESVIQHLGYLFLKMSPEDIRKWNVT
In the case of B9, the Kd [4] is reported as ~3 nM and the “CA125 binding activity relative to FULL” value [6] is reported as ~40%.

B10: rabbit IgG Fc fusion of the full-length extracellular domain of mesothelin (296-581) (Fc fusion, part only; not given: rabbit Fc, linker, myc tag, not shown: a dimerising Fc or GST; small tags and cut ends)
chain (part 1 of 2), part: EVEKTACPSGKKAREIDESLIFYKKWELEACVDAALLATQMDRVNAIPFTYEQLDVLKHKLDELYPQGYPESVIQHLGYLFLKMSPEDIRKWNVTSLETLKALLEVNKGHEMSPQAPRRPLPQVATLIDRFVKGRGQLDKDTLDTLTAFYPGYLCSLSPEELSSVPPSSIWAVRPQDLDTCDPRQLDVLYPKARLAFQNMNGSEYFVKIQSFLGGAPTEDLKALSQQNVSMDLATFMKLRTDAVLPLTVAEVQKLLGPHVEGLKAEERHRPVRDWILRQRQDDLDT
chain (part 2 of 2), part: HHHHHH
B10 showed a Kd [7] of 3 nM, a Kd [8] of 1.54 nM and an adhesion of fluorescently labeled mesothelin-expressing H9 cells onto a YOU monolayer [9] of 1 µg/mL. The adhesion of fluorescently labeled mesothelin-expressing H9 cells onto an OVCAR3 monolayer [9] was 10 µg/mL.

B11: mesothelin Region IB (328-369) rabbit IgG Fc fusion protein (Fc fusion, not shown: a dimerising Fc or GST; small tags and cut ends)
chain: DAALLATQMDRVNAIPFTYEQLDVLKHKLDELYPQGYPESVI
modifications: also: fusion with rabbit IgG Fc, thrombin site with flexible linker, myc epitope (no letters given)
With B11 the “CA125-binding activity relative to FULL” value [3] was ~10%, the binding result [5] was “no binding” and the “binding activity relative to FULL” value [6] was ~10%.

— patent US20110236385A1 (GOVERNMENT OF THE UNITED STATES OF AMERICA AS REPRESENTED …, published 2011)
